In the RNAGym collection of RNA variant scans (doi:10.1093/molbev/msab373):

B1: Azoarcus group I ribozyme (parent)
chain: GUGCCUUGCGCCGGGAAACCACGCAAGGGAUGGUGUCAAAUUCGGCGAAACCUAAGCGCCCGCCCGGGCGUAUGGCAACGCCGAGCCAAGCUUCGGCGCCUGCGCCGAUGAAGGUGUAGAGACUAGACGGCACCCACCUAAGGCAAACGCUAUGGUGAAGGCAUAGUCCAGGGAGUGGCGAAAGUCACACAAACCGG

Variants of: B1
Assay: reverse-splicing fitness (ratio to wild type); higher = more active; in vitro selection; Mg2+ level not given
Procedure, shortened: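 An in vitro group I ribozyme library with randomized positions was T7-transcribed and gel-purified. In triplicate, 10 pmol RNA in EPPS pH 7.5 was reacted with 50 pmoles of a 30-nt RNA substrate for 1 h at 37 °C across several added MgCl2 levels (1–48 mM), then stopped with EDTA. Products were reverse transcribed from a substrate-complementary primer, PCR-amplified and sequenced (HiSeq 4000). Fitness is a variant's read proportion after selection over that before, normalised to wild type.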

Question: Which reverse-splicing fitness does the source give for C82A A111C A120G C150U C169U U176C here?
Answer: 0.0155

Question: Which reverse-splicing fitness does the source give for C82A A111C A120G A145U C150U C169A U176G here?
Answer: 0.00604

Question: For C82A A111C A120G A145U C150U C169A U176A, which reverse-splicing fitness is on record?
Answer: 0.0123

Question: For C82A A111C A120G A145U C150U C169A U176C, which reverse-splicing fitness is on record?
Answer: 0.00986

Question: With C82A A111C A120C A145U C169U U176A as the variant, how does the reverse-splicing fitness read?
Answer: 0.0155

Question: Which reverse-splicing fitness does the source give for C82A A111C A120C A145U C169U U176C here?
Answer: 0.0141

Question: With C82A A111C A120C A145U C169U U176G as the variant, how does the reverse-splicing fitness read?
Answer: 0.00589

Question: Which reverse-splicing fitness does the source give for C82A A111C A120G A145U C150A C169U U176C here?
Answer: 0.0127

Question: Which reverse-splicing fitness does the source give for C82A A111C A120G A145U C150A C169U U176G here?
Answer: 0.00563

Question: Which reverse-splicing fitness does the source give for C82A A111C A120G A145U C150A C169U U176A here?
Answer: 0.017

Question: With C82A A111C A120G A145U U176C as the variant, how does the reverse-splicing fitness read?
Answer: 0.0197

Question: Which reverse-splicing fitness does the source give for C82A A111C A120G A145U U176G here?
Answer: 0.00466

Question: For C82A A111C A120G A145U U176A, which reverse-splicing fitness is on record?
Answer: 0.0134

Question: With C82A A111C A120G A145U C150G C169A as the variant, how does the reverse-splicing fitness read?
Answer: 0.00851

Question: With C82A A111C A120G A145U C150G C169U as the variant, how does the reverse-splicing fitness read?
Answer: 0.00788

Question: Which reverse-splicing fitness does the source give for C82A A111C A120G A145U C150G C169G here?
Answer: 0.00749

Question: Which reverse-splicing fitness does the source give for C82A A111C A120C C150U C169G U176A here?
Answer: 0.0139

Question: For C82A A111C A120C C150U C169G U176C, which reverse-splicing fitness is on record?
Answer: 0.016

Question: Which reverse-splicing fitness does the source give for C82A A111C A120C C150U C169G U176G here?
Answer: 0.00721

Question: With C82A A111C A120G A145G C150A U176A as the variant, how does the reverse-splicing fitness read?
Answer: 0.00969

Question: With C82A A111C A120G A145G C150A U176C as the variant, how does the reverse-splicing fitness read?
Answer: 0.0185

Question: With C82A A111C A120G A145G C150A U176G as the variant, how does the reverse-splicing fitness read?
Answer: 0.00772

Question: With C82A A111C A120G A145G C150U C169U U176A as the variant, how does the reverse-splicing fitness read?
Answer: 0.0155

Question: Which reverse-splicing fitness does the source give for C82A A111C A120G A145G C150U C169U U176G here?
Answer: 0.00525

Question: With C82A A111C A120G A145G C150U C169U U176C as the variant, how does the reverse-splicing fitness read?
Answer: 0.0131

Question: Which reverse-splicing fitness does the source give for C82A A111C A120C A145U U176C here?
Answer: 0.0164

Question: Which reverse-splicing fitness does the source give for C82A A111C A120C A145U U176A here?
Answer: 0.0147

Question: Which reverse-splicing fitness does the source give for C82A A111C A120C A145U U176G here?
Answer: 0.00692

Question: Which reverse-splicing fitness does the source give for C82A A111C A120G A145C C169A U176A here?
Answer: 0.00969

Question: For C82A A111C A120G A145C C169A U176C, which reverse-splicing fitness is on record?
Answer: 0.00724

Question: With C82A A111C A120G A145C C169A U176G as the variant, how does the reverse-splicing fitness read?
Answer: 0.0044

Question: Which reverse-splicing fitness does the source give for C82A A111C A120G A145U C150U U176A here?
Answer: 0.0121

Question: For C82A A111C A120G A145U C150U U176C, which reverse-splicing fitness is on record?
Answer: 0.0188

Question: Which reverse-splicing fitness does the source give for C82A A111C A120G A145U C150U U176G here?
Answer: 0.00527

Question: For C82A A111C A120C C150G C169U U176C, which reverse-splicing fitness is on record?
Answer: 0.0102

Question: For C82A A111C A120C C150G C169U U176G, which reverse-splicing fitness is on record?
Answer: 0.00771

Question: With C82A A111C A120C C150G C169U U176A as the variant, how does the reverse-splicing fitness read?
Answer: 0.00611

Question: For C82A A111C A120G C150G U176C, which reverse-splicing fitness is on record?
Answer: 0.0155

Question: With C82A A111C A120G C150G U176G as the variant, how does the reverse-splicing fitness read?
Answer: 0.00292

Question: With C82A A111C A120G C150G U176A as the variant, how does the reverse-splicing fitness read?
Answer: 0.00868

Question: With C82A A111C A120G A145C C169U U176A as the variant, how does the reverse-splicing fitness read?
Answer: 0.0138

Question: For C82A A111C A120G A145C C169U U176C, which reverse-splicing fitness is on record?
Answer: 0.00921

Question: Which reverse-splicing fitness does the source give for C82A A111C A120G A145C C169U U176G here?
Answer: 0.00467

Question: Which reverse-splicing fitness does the source give for C82A A111C A120G A145G C150A C169G U176G here?
Answer: 0.00656

Question: With C82A A111C A120G A145G C150A C169G U176A as the variant, how does the reverse-splicing fitness read?
Answer: 0.017

Question: With C82A A111C A120G A145G C150A C169G U176C as the variant, how does the reverse-splicing fitness read?
Answer: 0.0274

Question: For C82A A111C A120G A145C C150U C169G, which reverse-splicing fitness is on record?
Answer: 0.00775

Question: For C82A A111C A120G A145C C150U C169U, which reverse-splicing fitness is on record?
Answer: 0.00644

Question: With C82A A111C A120G A145C C150U C169A as the variant, how does the reverse-splicing fitness read?
Answer: 0.00801

Question: Which reverse-splicing fitness does the source give for C82A A111C A120C C150A C169A U176A here?
Answer: 0.0196

Question: Which reverse-splicing fitness does the source give for C82A A111C A120C C150A C169A U176C here?
Answer: 0.0181

Question: For C82A A111C A120C C150A C169A U176G, which reverse-splicing fitness is on record?
Answer: 0.00827

Question: With C82A A111C A120C C150G U176G as the variant, how does the reverse-splicing fitness read?
Answer: 0.00353

Question: Which reverse-splicing fitness does the source give for C82A A111C A120C C150G U176A here?
Answer: 0.00563

Question: With C82A A111C A120C C150G U176C as the variant, how does the reverse-splicing fitness read?
Answer: 0.00863

Question: With C82A A111C A120G A145G C150G U176C as the variant, how does the reverse-splicing fitness read?
Answer: 0.0111

Question: Which reverse-splicing fitness does the source give for C82A A111C A120G A145G C150G U176A here?
Answer: 0.00663

Question: For C82A A111C A120G A145G C150G U176G, which reverse-splicing fitness is on record?
Answer: 0.00573

Question: For C82A A111C A120G C150A C169G, which reverse-splicing fitness is on record?
Answer: 0.00885

Question: For C82A A111C A120G C150A C169A, which reverse-splicing fitness is on record?
Answer: 0.00919

Question: For C82A A111C A120G C150A C169U, which reverse-splicing fitness is on record?
Answer: 0.00723

Question: For C82A A111C A120C C169U U176C, which reverse-splicing fitness is on record?
Answer: 0.0149

Question: Which reverse-splicing fitness does the source give for C82A A111C A120C C169U U176A here?
Answer: 0.0152

Question: With C82A A111C A120C C169U U176G as the variant, how does the reverse-splicing fitness read?
Answer: 0.00697

Question: For C82A A111C A120G A145C C169A, which reverse-splicing fitness is on record?
Answer: 0.00659

Question: Which reverse-splicing fitness does the source give for C82A A111C A120G A145C C169U here?
Answer: 0.00846

Question: With C82A A111C A120G A145C C169G as the variant, how does the reverse-splicing fitness read?
Answer: 0.00901

Question: With C82A A111C A120G A145C C150U C169G U176G as the variant, how does the reverse-splicing fitness read?
Answer: 0.00558

Question: Which reverse-splicing fitness does the source give for C82A A111C A120G A145C C150U C169G U176A here?
Answer: 0.0217

Question: Which reverse-splicing fitness does the source give for C82A A111C A120G A145C C150U C169G U176C here?
Answer: 0.0133

Question: Which reverse-splicing fitness does the source give for C82A A111C A120G C150G C169A U176C here?
Answer: 0.00996

Question: With C82A A111C A120G C150G C169A U176A as the variant, how does the reverse-splicing fitness read?
Answer: 0.0102

Question: For C82A A111C A120G C150G C169A U176G, which reverse-splicing fitness is on record?
Answer: 0.00659

Question: With C82A A111C A120G C150A C169A U176C as the variant, how does the reverse-splicing fitness read?
Answer: 0.0168

Question: Which reverse-splicing fitness does the source give for C82A A111C A120G C150A C169A U176A here?
Answer: 0.0182

Question: With C82A A111C A120G C150A C169A U176G as the variant, how does the reverse-splicing fitness read?
Answer: 0.00729

Question: With C82A A111C A120G C169A U176A as the variant, how does the reverse-splicing fitness read?
Answer: 0.0155

Question: For C82A A111C A120C A145U C150U C169U, which reverse-splicing fitness is on record?
Answer: 0.0124

Question: Which reverse-splicing fitness does the source give for C82A A111C A120C A145U C150U C169G here?
Answer: 0.00764

Question: Which reverse-splicing fitness does the source give for C82A A111C A120G A145G C169U U176A here?
Answer: 0.0159

Question: Which reverse-splicing fitness does the source give for C82A A111C A120G A145G C169U U176G here?
Answer: 0.00473

Question: For C82A A111C A120G A145G C169U U176C, which reverse-splicing fitness is on record?
Answer: 0.0157

Question: For C82A A111C A120G A145G C150U C169A, which reverse-splicing fitness is on record?
Answer: 0.0111
